Test: soluble on expression in E. coli; label from the status in PepcDB or PDB records
For “MRTILIDWFSDAVREYIFRNEAVHLAVSLVDRALPMFNINKMRFQLVGITSMRIAVKYEEIFPPILSNTRHSFDGAILYWKVRLHRRNAHTILDRIMLCTENELYKKDAECCQTPRAVADRFSFSTLPPI”, the “soluble on expression in E. coli” value was “not soluble”. In the case of “AIASTMVYPREERLEKLTQDEIISSTKLVIQGLEALKSEHNSILQSLLETIQCLKKDEEASLVHEKSSLLRKSVEMIELGLGEAQVMMALSNHLNAVESEKQKLRAQVRRLCQENQWLRDELANTQHKVQKSEQSVAQLEEEKKHLEFMNQLKKYDDGATPEVSPHNDMHRDVSLSVRQLKRLRESK”, the “soluble on expression in E. coli” value is reported as “soluble”. With “MTMVKTLVALATERMLLKTSGPTFLRGIEFMYAAGLAPDRLSVMMTSSHKYVLQFHSKCDIRPFAANYPNFGRVLRGIVHVREWRIKSIEFVNVAFYMRDVDNLERAIEKLGVELVLLRNCTYPGVQRGDEAVKFLSALNRKKQAVVCEYGDDRLKHRIGRRSSGNRTRRASRNGQEIVNPAIAPGAAAAAQPALEAAPAAPAAGAAAPEANAPQAAPPGIRRPIPLNPDQARHIIPQLLNPGGAQPAPVQDGPVRGPPGIINQGRVVVGAHVYEFRAADVPNADGVPAVHNINHLLNVLNENAGNDVRVIVLPSRVGEGLPIHFNNNDLIFRHQSRPQPAPQQAAAAAAAGAAPAVAVGAEPLPQPDDVQIAPIPADERQARYARVQARLGHMMNARMRQNQEDQQYYYDQQPPNLMVVGTAHAHYRRHMNAQAHQQQREPSWNNYAVANAPPAIIQRNLDAPAPMFGVAVNEPQVQRNGDDSNDSTDREEIYDAEQQRQEALRDLVADPEAQPNFAPVEAQAVDLDMLEEEGEDDEVMEVGGVDGQFMMDGRAVME” the “soluble on expression in E. coli” value was “not soluble”. In the case of “GKDFSYWVKMTTGYSDNKIKEAGFQATPGFDDIVRGERSDRGVWGYECIGMFRTYQDIEEYFAVNKITSYLGNTKDNIHPGMLIYRDVRGQRNADGTYGEADGVIDQNDYVKISN”, the “soluble on expression in E. coli” value is reported as “not soluble”. With “MSRKYFYFDYDYYGMSFCEEEITTEPEEKVAYTSNSGGFADEVTGIPKEGHQSSIGEHSCVMPNTQDTGREEPEETSKVAETSEQSLFRIPRKAYRFTPGQLWELQAVFVENQYPDALKRKELAGLLNVDEQKIKDWFNNKRAKYRKIQREILGGKNITPTQEELRMKTLVESKKIIIFQEQEGDGLFWEHQNIDTQNSPLSLLFS” the “soluble on expression in E. coli” value was “soluble”. For “MSDEDERHRKKMKRKTCTGDSKSPAKKKQKIKDKSEEKSHAVQKHDAIGGKADSTKTKVKLSGKDKDKGKISKSAHSTEWTENDKKSSSDGGKKQIKRNEKGQLLFKDHPEFTPNMTPKEVLQAGSFGGTYFRPIYSSITKKHYKDVWKELPEDWLDGLNIPEQVASSTYREKVNTYKVKCGGSLEMWESSGWIVPQDPYGWFQWYCRFYQGRRTEDDARQISRWSKCAGVKGRWRNNLITKVVRSGCAYDNVTVSPVVRQTLQHWGYKLTPEDYKQGAKRVKLK”, the “soluble on expression in E. coli” value was “not soluble”. For “MGSDKIHHHHHHMKIGFLSRWGATCGVGMHAEILAREFIRMGHEVVVFAPTEESASKEVKYYKRTEAQDPEFVKREIYTEVDNVTEEGWVKEEEILKENLDLLIIETFWRVPVKPLTRLIEKLKIPVISVFHEANIFKAREVVKLPCDKIVVFDRRFYDEILEFYEIPREKVEVISYPVMKPYDAEPERPVSEDKFLFFSFGRQPVEEYCDFLNALKKLRKRFDNVHYWIIRSDGRVDYEAEWITQWQKRPTVEKLYSYLKGSNVHLLPKGNTPNVVVSSTLYQIIASETPIVIRDSRFVETIETDVYGFGPIVKYRNIHDLVHKLELLMLDRELVEDIKKEVRVFVEKYGGDKIAQEFLDLAKTITK”, the “soluble on expression in E. coli” value was “not soluble”. With “RDIIQYIPARSSYGTPPFVPPGPSPYVGTGMQEYRKLRSTLDKSHSELKKNLKNETLKEVDELKSEAGLPGKAVSANDIRDEKSIVDALMDAKAKSLKAIEDRPANLYTASDFPQKSESMYQSQLLASRKFYGEFLDRHMSELAKAYSADIYKAQIAILKQTSQELENKARSLEAEAQRAAAEVEADYKARKANVEKKVQSELDQAGNALPQLTNPTPEQWLERATQLVTQAIANKKKLQTANNALIAKAPNALEKQKATYNADLLVDEIASLQARLDKLNAETARRKEIARQAAIRAANTYAMPANGSVVATAAGRGLIQVAQGAASLAQAISDAIAVLGRVLASAPSVMAVGFASLTYSSRTAEQWQDQTPDSVRYALGMDAAKLGLPPSVNLNAVAKASGTVDLPMRLTNEARGNTTTLSVVSTDGVSVPKAVPVRMAAYNATTGLYEVTVPSTTAEAPPLILTWTPASPPGNQNPSSTTPVVPKPVPVYEGATLTPVKATPETYPGVITLPEDLIIGFPADSGIKPIYVMFRDPRDVPGAATGKGQPVSGNWLGAASQGEGAPIPSQIADKLRGKTFKNWRDFREQFWIAVANDPELSKQFNPGSLAVMRDGGAPYVRESEQAGGRIKIEIHHKVRIADGGGVYNMGNLVAVTPKRHIEIHKGGK” the “soluble on expression in E. coli” value was “not soluble”. For “MSTHGSLSEVERFNLLYKSSFNKVCNFACFYVRNKQASEDITMDAFLQLLETMKVESVDNPMALLITIVKHKSLDYLKTQVRREDTKDDLIQWKQRELAIRISNLEGCNPSYIFSQEIKSIVMKTLNQLPEQTKKVFIMNRFENKSGKEIAQTLGISVKGVDYHMNKALKELRAALKDYLPILTWLCFMNPINKG”, the “soluble on expression in E. coli” value was “not soluble”. For “MGSDKIHHHHHHMWQDILNIHPDCIEDFINFDKLPGQAASLIAFAGMSYLQTEYKIGKTGKGNICLNNENNSGHVHYLISTHAGEGKIKLGNNEYLVKPGSIVLLPAGTPFLYELSGEYWEMCWLLLHDCSEYKFVHQLHPSVYSSINAERLYQTMSLIREFQHGESIYQSDIILRLVEVLVYQIAQTLNMGQQLTKQQQKFHSLIRRVNKQLQLSWTVKQLAAEMHMSEPHFFRLCKKEMGMTPIKLLTHTRLEYACYLLRYTQYNLDQIADTVGYGDSASFAHRFKKDYGLSPGRWRKEQINNFQSNDIENGEKR”, the “soluble on expression in E. coli” value was “not soluble”. For “GRYEIRFSGAGGQGLILAGVIMAEAASIYDGKQAVQSQSYGPEARGGASKSEVIISDGPVDYPKATQCDALLALTQEACDKYSADLKEGGVLLVDSDLVTKLPPGNYQTTAFNIINTAKNDVGREIVANIVALGAMVALTGVVSKEAAEKAVLSRVPEAFVELNRKAFQMGFEKAL”, the “soluble on expression in E. coli” value was “not soluble”. In the case of “GHMKGLTEKLMILSHQSIKNLLGKVILNYSEENVRENGYDLRICGDKYYELVQGAELPEKKATLREIEFKERAILSANHTYLFESCEEFNMPADLAVLITLKSTLARNGFLAPPTVIDAGYKGKVNVAITAVYNSSLKKGMATHHLIFLKLDKPTERLYNGKYQGGILI”, the “soluble on expression in E. coli” value is reported as “soluble”. For “MKNIAIIGASGYTGAQLTALVHAESELSIQGLYVSENSLDKGRALADLYPVYSHIELTLSPLTEEAKANIVAEADAVVLATEHSVSLHLAAWFYSQGLAVFDLSGAYRFSDVAQYPKWYGFEHEYPEVLAKAVYGLAEWNAKDVAATKMIAVPGCYPTASLTALKPLKNLLTSAYPVINAVSGVTGAGRKAQLHTSFCEVSLTPYGVLGHRHQPEIATQLGQEVIFTPHLGNFKRGILATITVQLKPGTTTADVAAAYSVYDQAPLVTVKQNQFPKVDDVVLTPNCHLGWKFDESSGYLVVASAIDNLMKGAASQALQCIKIHFNL”, the “soluble on expression in E. coli” value was “not soluble”. With “MLEYKLIRSKRRKTLALQVKHGQVTVRAPHYVTSAFIDTFIQEKSAWLRSKLAEQQKTPEYCDFSQGSNLLYLGEKVILNICIAKKSEVYFSHLVIAEIEPKNYQEITTKQLNVAISEKIHSRLINPLAISKQIKKQLEVYFKQQAEQLFSERLERISKQISLCPTAINIRQYRARWGSCNNRGEVSFNYLLMMTPLTVIDYVIVHELCHLEHLNHSKEFWHLVEKFCPNYEIAKKWLNTYQSLEHHHHHH” the “soluble on expression in E. coli” value was “soluble”. With “SYSYVYIYMPTWREDKRNILEIIDFDRLNQLCIKNNNLFLFRLHPNTEINLDMLVSYSNLRIIDSSCDIYPILPFTDVLITDYSSIYYDYMLIPNKQILLFPFDEEEYCTFNRDLAFDYKIYTPGIRIYSFEALLEIVESKKNLNIKEIKVIKKLFWKGRNESIIDRIIN” the “soluble on expression in E. coli” value was “not soluble”. For “MGSDKIHHHHHHMQNFVLTVSCKSTRGVVAALSGYLAEQGCNIADSSQFDDLDTGKFFMRTSFISEERVGLAALEEGLKPIASKFEMETALHEQSERMKVLLMVSRFGHCLNDLLYRWKIGALPIDIVGVVSNHFDYQKVVVNHDIPFHHIKVTKENKPKAEAQLMDVVEQTGAELIVLARYMQVLSDALCKKMSGKIINIHHSFLPSFKGANPYKQAYERGVKLIGATAHYVTADLDEGPIIEQDIARITHAQSAEDYVSIGRDVESQVLARAVHAHIHHRCFINGNRVVVFPPSPGSYASERMG”, the “soluble on expression in E. coli” value was “not soluble”. For “MGSDKIHHHHHHMSKWLNVGKIVNTHGVRGEVRVLSTTDFEDDRFSSGKTLYVMRPNQNERVAVTVASHRKHKNFDLLCFEGYPSINDVEAFKGGRLQVPIEDRPELGEGEFFYHEIIGCSVVTIAGEELGKVKEILSPGANDVWVVQCRRGGKDLLIPYIEQVVKQVDLEKQQITIEPMEGLLE”, the “soluble on expression in E. coli” value was “not soluble”. With “MHIKYDQAMDDETKVEAILYATRNPLSVRSISLILGIEAGAISRIIKKLRLEYKKRNTSLEIAKIGNKYRIQLKKEYYDFAYRVMEPELSKYETGFLATVALNEGASLSFFRKRYGSRTDDMISKLKTMSLIRTSKKGNGTAIYLGENFEKVFGITKKELLERATEYDRQN” the “soluble on expression in E. coli” value was “soluble”. For “MSDDEIGDGARAFNQLIQALSLSIETETAVRTFTEMLVSELDVHQLTEQALALLLQHTGADGGAILIEVDGEIRVAASQGIGSAHTLANNDRVRSALRTERRHRVQLPEDLVVDGMLAQFRPKEVIIDPVRHKEVVLGAVVLASGQGFSAEDRNRLDVFERGLALALHNALLYDRLQTLAALDPLEHHHHHH”, the “soluble on expression in E. coli” value was “not soluble”. In the case of “MGSDKIHHHHHHMSQYSVTSSSVVKEKASELGFHKVGIAAVDSIDATEAQRLQAWIELGYHADMEWMANPKRQDIRLVMPEARSLVCVALNYYTPHQRPEGEEYAKISRYGWGRDYHKVMHKKLKQLSTWLESLDESVRVRYYADTGPVQDKVLAQLAGIGWIAKNGNVITREYGSWVFLGEVLTNLELESDRPHTEHCGSCTRCLQACPTSAITQPFIVDANRCIAYHTIENRDEKLPQTLTSHLQGWVAGCDICQDVCPWNQRFASTTDIPEFQPYPGNIAPKLLELAQISDQEWNKRFPASALRRIKPEMLRRNALANLDASRQIMTPKVIIFDFDGTIADTVDALVSIANRLAVDFGYRHISPEQLSLLKNLTSREIIKYSGVSLFKIPFLVKKVKGELKNKIPELKPIPGIKEALIELQNKGYKLGIITSNSKDNVTQFLTINDLNHLFDFIYSGITIFGKTTIINNVLRQNQLQPQEVIYVGDETRDIEASKKANIQVIAVAWGFNSSEVLAKQNPDYLIQQPSELLEVMNGY”, the “soluble on expression in E. coli” value is reported as “not soluble”. For “MRVLATAADLEKLINENKGRLIVVDFFAQWCGPCRNIAPKVEALAKEIPEVEFAKVDVDQNEEAAAKYSVTAMPTFVFIKDGKEVDRFSGANETKLRETITRHK”, the “soluble on expression in E. coli” value was “soluble”. For “EHDNTSYICKKIDEDEYVLSARLEIEKVNEMFGLDLPESDDYLTVGGLILNQYQSFPKLHELVRVGRYQFKIIKVTATKIELVRLKVME”, the “soluble on expression in E. coli” value was “not soluble”. In the case of “AHHHHHHGSGRIISIVSGKGGTGKTTVTANLSVALGDRGRKVLAVDGDLTMANLSLVLGVDDPDVTLHDVLAGEANVEDAIYMTQFDNVYVLPGAVDWEHVLKADPRKLPEVIKSLKDKFDFILIDCPAGLQLDAMSAMLSGEEALLVTNPEISCLTDTMKVGIVLKKAGLAILGFVLNRYGRSDRDIPPEAAEDVMEVPLLAVIPEDPAIREGTLEGIPAVKYKPESKGAKAFVKLAEEIEKLAGLKARVMY”, the “soluble on expression in E. coli” value is reported as “not soluble”.

From the DeepSol protein solubility set
